Four molecules from US20220396632A1 can be followed below.

The chains are these.
T1: Scrambled Y42,52,63(SO3) PSGL-1(42-62) biotin peptide
T1 sequence (peptide, sulfotyrosine at peptide positions 1, 11 and 22; C-terminal Lys-biotin): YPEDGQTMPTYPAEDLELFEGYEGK

B1: 09D11 (antibody, IgG4, V domains shown)
VH: QVQLVESGGGFIQPGGSLRLSCAASGLTFSNYAMTWVRQAPGKGLEWVSTISGGGGNTYYTDSVKGRFTISRDNSKNTLYLQMNSLKAEDTAVYRCAKGLAAALFDYWGQGTLVTVSS
VL: DIVLTQSPDSLPVTPGEPASISCRSSRSLLHSNGHNFLAWYLQKPGQSPHLLIYLGSNRASGVPDRFSGSGSGTDFTLKISRVEAEDVGIYYCMQALQTPITFGQGTRLDIK
B2: 03D01 (antibody, IgG4, V domains shown)
VH: EVQLVQSGGGLVQPGGSLRLSCAATGFTVSRNYMTWVREAPGKGLEWVAGIYKSGTTSYIESVKGRFTISRDNSKNTLYLEMSRLRAEDTAVYYCAKSTSTWGQGTQVTVSS
VL: DVVMTQSPVSLPVTLGQPASISCRSSRNLLYSNGNTYLNWFHQRPGQSPRRLIYKVSNQDSGVPDRFSGSGSGTDFTLKISRVEAEDVGVYYCMQGTHWPTTFGQGTRLEIK
B3: 09B09 (antibody, IgG4, V domains shown)
VH: EVKLLESGGGLVQPGGSLRLSCAASGITFSTYAMMWVRQAPGKGLEWVSGISGSGASRYYADSVKGRFTISRDNSKNMLYLQMNSLRAEDTAVYYCAKKVLGRRKQYFDDWGQGTLVTVSS
VL: DIVMTQSPLSLPVTPGEPASISCRSSQSLLHSNGYNYLDWYLQRPGQSPQLLIYLGSHRASGVPDRFSGSGSGTEHTLKITTVAAEDVGVYYCMQALQSPPTFGQGTRLDIK
B4: 01A04 (antibody, IgG4, V domains shown)
VH: EVQLVQSGAEVKKPGASVKVSCKASGYTFTSYYIHWVRQAPGQGLEWMGIIRPSGGSTSYAQKFQGRVTMTRDTSTSTVYMELSSLRSEDTAMYYCARVGVGSFDYWGQGTLVTVSS
VL: DIQMTQSPSTLSASVGDRVTITCRASQSVSNWLAWYQQKPGKAPKLLIYKASSLESGVPSRFSGSGSGTEFTLTISSLQPDDFATYYCQWFRTFGPGTKVDIK

The experiment concerns the target T1, Scrambled Y42,52,63(SO3) PSGL-1(42-62) biotin peptide. Description: ELISA, immobilized biotin peptide. (An ELISA detects its analyte on a solid surface through an enzyme-linked reagent.)
As for B1, the A450nm, 20 nM mAb was found to be 0.09 A450nm.

For B2, the A450nm, 20 nM mAb stood at 0.12 A450nm. Take B3: the A450nm, 20 nM mAb worked out at 0.37 A450nm. For B4, the A450nm, 20 nM mAb is 0.13 A450nm.
